Changes are numbered by the printed parent chain.
B1: ADI-25555 (antibody, V domains shown)
VH: QVQLVQSGGGLVKPGGSLRLSCAASGFTFSSYSMNWVRQAPGKGLEWVSSISSSSSYIYYADSVKGRFTISRDNAKNSLYLQMNSLRAEDTAVYYCARQRGGIAVAGTYFDLWGRGTLVTVSS
VL: QPVLTQPPSVSGAPGQRVTISCTGSSSNIGAGYDVHWYQQLPGTAPKLLIYGNSNRPSGVPDRFSGSKSGTSASLAITGLQAEDEADYYCQSYDSTVVFGGGTKLTVL
notes: full-length IgG
B2: ADI-14364 (antibody, V domains shown)
VH: QVQLVQSGAEVKKPGESLKISCKGSGYSFTSHWIGWVRQMPGKGLEWMGITDPGDSDTRYSPSFQGQVTISADKSISTAYLQWSSLKASDTAMYYCAREPRRWMTTETNGPYYFDNWGQGTLVTVSS
VL: SYVLTQPPSVSVAPGKTARITCGGNNIGSKSVHWYQQKPGQAPVLVIYYDSDRPSGIPERFSGSNSGNTATLTISRVEAGDEADYYCQVWDSSSDNRVFGGGTKVTVL
notes: full-length IgG; also called Ab 32
B3: ADI-14347 (antibody, V domains shown)
VH: EVQLVESGGGLVKPGGSLRLSCAASGFTFRDYYMNWIRQAPGKGLEWVSDISASSSYTNYADSVKGRFTISRDNAKTSLYLQMNSLRAEDTAVYYCAREVVTAMGGYYFDYWGQGTLVTVSS
VL: QSVVTQPPSVSGAPGQRVTISCTGSSSNIGAGYDVHWYQQLPGTAPKLLIYGNNNRPSGVPDRFSGSKSGTSASLAITGLQAEDEADYYCQSYDSSLSGSGVFGTGTKVTVL
notes: full-length IgG; also called Ab 15
B4: ADI-25549 (antibody, V domains shown)
VH: QVQLVQSGGGLVKPGGSLRLSCAASGFTFSSYSMNWVRQAPGKGLEWVSSISSSSSYIYYADSVKGRFTISRDNAKNSLYLQMNSLRAEDTAVYYCARVSSGWYGGGAYYFDYWGQGTLVTVSS
VL: B3 VL with N54S, G99A, S100L, G101Y
notes: full-length IgG
B5: ADI-14344 (antibody, V domains shown)
VH: QVQLVQSGGGLVQPGGSLRLSCAASGFTFRTYALSWVRQAPGKGLEWVSSILGSGGSTYYADSVKGRFTISRDNSKNTLYLQLNSLRAEDTAVYFCAKLAVAGLLHHYYGLDVWGQGTTVTVSS
VL: SYELTQPPSVSVSPGQTASITCSGDKLENKYACWYQQKPGQSPVLLIYQDTKRPSGIPERFSGSNSGTTATLTISGTQALDEADYYCQAWDSSTASVLFGGGTQLTVL
notes: full-length IgG; also called Ab 12
B6: ADI-14357 (antibody, V domains shown)
VH: EVQLVESGGGVVQPGRSLRLSCAASGFTFSNYAMHWVRQAPGKGLEWVSIISYDGSNKYYADSVKGRFTISRDNSKNTLYLQINSLRTEDTAVYYCARARKRIPIVVVTAPYYYGMDVWGQGTTVTVSS
VL: DIRVTQSPSSLSASVGDRVTITCRASQSISSYLHWYQQQPGKAPNLLIYAASNLQSGVPSRFSGSGSGTDFTLTISSLQPEDFATYYCQQSYTTPHTFGQGTKVEIK
notes: full-length IgG; also called Ab 25
B7: ADI-14367 (antibody, V domains shown)
VH: EVQLLESGGGLVQPGGSLRLSCAASGFTFGSYDMNWVRQAPGKGLEWVSGISGSGDATYYADSVKGRFTISRDNSKNMLYLQMNSLSAEDMAVYYCARDRAFTMKYNSNWYKIYWGQGTMVTVSS
VL: EIVLTQSPGTLSLSPGERATLSCRASQSVTSSYLAWYQQKPGQAPRLLIYGAFSRATGIPDRFSGSGSGTDFTLTISRLEPEDFAVYYCHHYGTSRWTFGQGTKVDIK
notes: full-length IgG; also called Ab 35
B8: ADI-14335 (antibody, V domains shown)
VH: EVQLVESGGGLVQPGRSLRLSCTASGFTFGDYAMSWVRQAPGKGLEWVGFIRSNAFGGTSEYAASVKGRFTISRDDSKSIAYLQMNSLKTEDTAVYYCTRDGIHDYGDSYYYYGMDVWGQGTTVTVSS
VL: DIQLTQSPSSLSASVGDRVTITCRASQTVTTYLNWYQQKPGKAPKLLIYGASSLQSGVPSRFSGSGSGTDFTLTINSLQPEDFATYYCQQTYSTVTFGPGTKVEIK
notes: full-length IgG; also called Ab 3
B9: ADI-14340 (antibody, V domains shown)
VH: EVQLVESGGGLVKPGGSLRLSCAASGFTLSSYTMNWVRQAPGRGLEWVSSIYSTSSYIYYADSVKGRFTISRDNAKNSLYLQMNSLRAEDTAVYYCARDSQAVTGTDLYFDSWGQGTLVTVSS
VL: QPGLTQPPSVSVAPGKTARITCGGNNIGRKNVHWYQQKPGQAPILVIYYDSDRPSGIPERFSGSNSGNTATLTISRVEDGDEADYYCQVWDSSNDHVIFGGGTQLTVL
notes: full-length IgG; also called Ab 8
B10: ADI-14345 (antibody, V domains shown)
VH: QITLKESGAEVKKPGASVKVSCKVSGYTLSDFSMHWVRQAPGKGLEWMGSFDPEDGETVDAQKFQGRVTMTEDRSTATAYMELRSLRSEDTAVYYCGTPASAGQVDYWGQGTLVTVSS
VL: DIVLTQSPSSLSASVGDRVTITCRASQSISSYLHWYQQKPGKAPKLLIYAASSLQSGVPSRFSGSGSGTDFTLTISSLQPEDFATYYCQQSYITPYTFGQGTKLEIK
notes: full-length IgG; also called Ab 13
B11: ADI-14337 (antibody, V domains shown)
VH: EVQLVESGGGLVKPGGSLRLSCAASGFTFSSYSMNWVRQAPGKGLEWVSSISSSSSYIYYADSVKGRFTISRDNAKNSLYLQMNSLRAEDTAVYYCAREYYDSSGYTNWFDPWGQGTLVTVSS
VL: QPVLTQPPSVSGAPGQRVTISCTGSSSNIGAGYDVHWYQQLPGTAPKLLIYGNSNRPSGVPDRFSGSKSGTSASLAITGLQAEDEADYYCQSYDSSLAWVFGGGTQLTVL
notes: full-length IgG; also called Ab 5
B12: ADI-14346 (antibody, V domains shown)
VH: EVQLLESGGGLVKPGGSLRLSCAASGFRFSSYSMNWVRQAPGKWLEWVSSISASSSYTDYADSVKGRFTISRDNAKNSLYLQMNSLRAEDTAVYYCAREDYLSSGSLLHWFDPWGQGTLVTVSS
VL: B11 VL with S54N, S96R, A98S, W99V, V100L, Q106K, L107V
notes: full-length IgG; also called Ab 14
B13: ADI-25524 (antibody, V domains shown)
VH: EVQLLESGGGLVKPGGSLRLSCAASGFTFSSYSMNWVRQAPGKGLEWVSSISSSSSYIYYADSVKGRFTISRDNAKNSLYLQMNSLRAEDTAVYYCAREWSPIVVVTNAFDIWGQGTMVTVSS
VL: QSVLTQPPSVSGAPGQRVTISCTGSSSNIGAGYDVHWYQQLPGTAPKLLIYGNSNRPSGVPDRFSGSKSGTSASLAITGLQAEDEADYYCQSYDSSLSGWVFGGGTKVTVL
notes: full-length IgG
B14: ADI-25562 (antibody, V domains shown)
VH: QVQLVESGGGLVKPGGSLRLSCAASGFTFSDYYMSWIRQAPGKGLEWVSYISSSSSYTNYADSVKGRFTISRDNAKNSLYLQMNSLRAEDTAVYYCARVGYSSSWYNYFDYWGQGTLVTVSS
VL: B13 VL with Q1S, S2Y, W100P, V108L
notes: full-length IgG; also called Ab 453
B15: ADI-14333 (antibody, V domains shown)
VH: EVQLVETGGGLVKPGGSLRLSCADSGFPFSSYSMHWVRQAPGKGLEWVASISSSSSFINYADSVKGRFTISRDNAKNSLYLQMNSLRAEDTAVYFCAREAACGGDCYGYYFDYWGQGTLVTVSS
VL: B13 VL with L4V, V10A, L48V, Y51S, D62A, W100S, K107Q, V108L
notes: full-length IgG; also called Ab 1
B16: ADI-19420 (antibody, V domains shown)
VH: EVQLLESGGGLVKPGGSLRLSCAASGFTFSSYSMNWVRQAPGKGLEWVSSISSSSSYIYYADSVKGRFTISRDNAKNSLYLQMNSLRAEDTAVYYCARVGWGYSYGYWFDPWGQGTLVTVSS
VL: B13 VL with W100V, V108L
notes: full-length IgG
B17: ADI-19421 (antibody, V domains shown)
VH: EVQLLESGGGVVQPGRSLRLSCAASGFTFSSYGMHWVRQAPGKGLEWVAVISYDGSNKYYADSVKGRFTISRDNSKNTLYLQMNSLRAEDTAVYYCAKDIHHVLRFLDPDYWGQGTLVTVSS
VL: QSVLIQPASVSGFPGQSITISCTGTSSDVGGYNYVSWYQQHPGKAPKLMIYEVSNRPSGVSNRFSGSKSGNTASLTISGLQAEDEADYYCSSYTSSSTLVFGGGTKLTVL
notes: full-length IgG
B18: ADI-25567 (antibody, V domains shown)
VH: QVQLQQWGAGLLKPSETLSLTCAVYGGSFSGYYWSWIRQPPGKGLEWIGEINHSGSTNYNPSLKSRVTISVDTSKNQFSLKLSSVTAADTAVYYCARGLPRFGVVTPNWFDPWGQGTLVTVSS
VL: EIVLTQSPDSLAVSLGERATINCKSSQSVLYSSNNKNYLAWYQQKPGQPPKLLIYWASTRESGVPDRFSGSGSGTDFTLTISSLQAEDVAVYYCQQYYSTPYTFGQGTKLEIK
notes: full-length IgG

Molecular target: T1, RSV postfusion F (postF), subtype A (respiratory syncytial virus subtype A, UniProt P03420 26-513)
T1 construct: also called Postfusion subtype A; F deltaFP
Test: BLI

Binder | binding result
B1 | no binding
B2 | no binding
B3 | no binding
B4 | no binding
B5 | no binding
B6 | no binding
B7 | no binding
B8 | no binding
B9 | no binding
B10 | no binding
B11 | no binding
B12 | no binding
B13 | no binding
B14 | no binding
B15 | no binding
B16 | no binding
B17 | no binding
B18 | no binding

Molecular target: RSV F on RSV subtype B virus (mKate-RSV B 18537) (respiratory syncytial virus B 18537, UniProt P13843 26-574)
Test: cell-based or functional assay

Binder | Neut IC50 subtype B [µg/mL]
B1 | 12.1
B2 | 2.39
B3 | 0.05
B4 | 6.02
B5 | 1.2
B6 | 0.88
B7 | 0.33
B8 | 0.1
B9 | 1.94
B10 | 0.87
B11 | 0.07
B12 | 0.07
B13 | 2.09
B14 | 1.14
B15 | 0.09
B16 | 0.64
B17 | 3.3
B18 | 1.94

Molecular target: RSV F on RSV subtype A virus (mKate-RSV A2) (respiratory syncytial virus A2, UniProt P03420 26-574)
Test: cell-based or functional assay

Binder | Neut IC50 subtype A [µg/mL]
B1 | 18.6
B2 | 0.03
B3 | 0.11
B4 | 11.5
B5 | 8.68
B6 | 1.24
B7 | 3.94
B8 | 0.32
B9 | 6.63
B10 | 2.3
B11 | 0.1
B12 | 0.05
B13 | 1.77
B14 | 1.18
B15 | 0.07
B16 | 0.55
B17 | 10
B18 | 0.33

Molecular target: T2, RSV prefusion F (preF), subtype B (respiratory syncytial virus subtype B)
T2 construct: also called Prefusion subtype B
Test: BLI, IgG

Binder | Kd [nM]
B1 | 44.7
B2 | 61.6
B3 | 2.54
B4 | 28.8
B5 | 0.586
B6 | 0.306
B7 | 0.269
B8 | 0.889
B9 | 98
B10 | 5.26
B11 | 2.11
B12 | 0.925
B13 | 23.4
B14 | 3.32
B15 | 0.904
B16 | 2.47
B17 | 5.42
B18 | 3.83

From patent US20260258115A1 (MAPP BIOPHARMACEUTICAL, published 2026)
